What was measured:
[1] = target: T1, human eIF2B(αβδγε)2 decamer, eIF2Bβ Avi-tagged and biotinylated (human, UniProt Q14232;P49770;Q9UI10;Q9NR50;Q13144, biotin on the Avi tag); assay: SPR; details: both partners purified
T1 construct: also called decameric eIF2B; copies: 2 + 2 + 2 + 2 + 2

[2] = target: T2, human eIF2B(αβδγε)2 decamer (no capture tag) (human, UniProt Q14232;P49770;Q9UI10;Q9NR50;Q13144); assay: fluorescence polarisation; details: both partners purified
T2 construct: also called decameric eIF2B; eIF2B(αβγδε)2; copies: 2 + 2 + 2 + 2 + 2

B1: Sandfly Fever Sicilian virus (SFSV) NSs protein with a C-terminal 6xHIS tag (natural protein)
chain: MINNNMMNSQYMFDYPAINIDVRCHRLLSSVSYVAYNKFHTHDVSTYEHCEIPLEKLRLGFGRRNSLADFYSLGELPASWGPACYFSSVKPMMYTFQGMASDLSRFDLTSFSRKGLPNVLKALSWPLGIPDCEIFSICSDRFVRGLQTRDQLMSYILRMGDSHSLDECIVQAHKKILQEARRLGLSDEHYNGYDLFREIGSLVCLRLINAEPFDTASSGEALDVRTVIRSYRASDPSTGLTEYGNSLWTPIHSHVDENDESSSDSDF
notes: not shown: 6xHIS, C-terminal, kept
B1 gave a Kd [1] of 30 nM and an EC50 [2] of 72 nM.
